Test results: the supplement of paper PMC10724198
± gives the standard deviation of the averaged measurements.

Legend:
Saccharomyces cerevisiae [1] = assay: protein stability index of tFT-peptide fusion (C-terminal peptide) (PSI (0-1 scale)); higher = more stable (slower turnover)
Procedure: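 MPS profiling in S. cerevisiae of the tFT-X12 degron library: putative degron peptides plus stable controls, 12 aa, fused to the C-terminus of a sfGFP-mCherry timer. Cells are FACS-sorted into 8 mCherry/sfGFP bins and deep-sequenced. PSI runs from 0 (unstable) to 1 (stable). Backgrounds are wild type, das1Δ and doa10Δ at 30 °C, and wild type, das1Δ, cdc34-1 and cdc53-1 at 37 °C; 2-3 technical replicates each.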

Saccharomyces cerevisiae [2] = assay: as above; conditions: genetic background: wild type; temperature: 30 C
[3] = genetic background: cdc34-1, temperature: 37 C
[4] = genetic background: cdc53-1, temperature: 37 C
[5] = genetic background: das1 deletion, temperature: 30 C
[6] = genetic background: das1 deletion, temperature: 37 C
[7] = genetic background: doa10 deletion, temperature: 30 C
[8] = genetic background: wild type, temperature: 30 C
[9] = genetic background: wild type, temperature: 37 C
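Also: PSI is a weighted mean of sequencing reads over stability bins, variants kept only with over 10 reads, mCherry proximal and sfGFP distal, peptide attached via GGGS linker.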

| Sequence | protein stability index (Saccharomyces cerevisiae [1]; [3]) | protein stability index (Saccharomyces cerevisiae [1]; [4]) | protein stability index (Saccharomyces cerevisiae [1]; [5]) | protein stability index (Saccharomyces cerevisiae [1]; [6]) | protein stability index (Saccharomyces cerevisiae [1]; [7]) | protein stability index (Saccharomyces cerevisiae [1]; [8]) | protein stability index (Saccharomyces cerevisiae [1]; [9]) | protein stability index (Saccharomyces cerevisiae [2]) |
| --- | --- | --- | --- | --- | --- | --- | --- | --- |
| LSLVIFIFLYCR | 0.0945 ± 0.016 | 0.123 ± 0.037 | 0.179 ± 0.0092 | 0.234 ± 0.0042 | 0.27 ± 0.033 | 0.169 ± 0.023 | 0.205 ± 0.027 | 0.227 ± 0.053 |
| LSLWPIFGIIYC | 0.46 ± 0.035 | 0.4637 ± 0.0007 | 0.357 ± 0.024 | 0.516 ± 0.013 | 0.332 ± 0.011 | 0.364 ± 0.019 | 0.513 ± 0.019 | 0.4508 ± 0.0019 |
| LSPPPLSFPFSA | 0.704 ± 0.0072 | 0.753 ± 0.02 | 0.623 ± 0.012 | 0.737 ± 0.011 | 0.643 ± 0.017 | 0.666 ± 0.024 | 0.7118 ± 0.0069 | 0.136 ± 0.021 |
| LSVVVLVLCVLL | 0.285 ± 0.028 | 0.403 ± 0.02 | 0.279 ± 0.04 | 0.42 ± 0.027 | 0.268 ± 0.023 | 0.283 ± 0.023 | 0.428 ± 0.082 | 0.353 ± 0.033 |
| LVGYCGAWACVV | 0.642 ± 0.034 | 0.677 ± 0.021 | 0.558 ± 0.023 | 0.674 ± 0.018 | 0.244 ± 0.011 | 0.283 ± 0.027 | 0.501 ± 0.025 | 0.4 ± 0.036 |
| LVLCCGFWFRAV | 0.619 ± 0.046 | 0.606 ± 0.038 | 0.464 ± 0.031 | 0.612 ± 0.0063 | 0.27 ± 0.0049 | 0.286 ± 0.029 | 0.501 ± 0.02 | 0.381 ± 0.025 |
| LVLGVEVCFVLG | 0.102 ± 0.0073 | 0.16 ± 0.011 | 0.177 ± 0.033 | 0.296 ± 0.0065 | 0.147 ± 0.012 | 0.168 ± 0.032 | 0.246 ± 0.022 | 0.273 ± 0.015 |
| LVPYLWWLVFAL | 0.189 ± 0.015 | 0.125 ± 0.023 | 0.192 ± 0.028 | 0.319 ± 0.046 | 0.202 ± 0.011 | 0.143 ± 0.019 | 0.24 ± 0.026 | 0.274 ± 0.027 |
| LVVFGLVLSLLL | 0.449 ± 0.013 | 0.477 ± 0.006 | 0.376 ± 0.022 | 0.5066 ± 0.0043 | 0.356 ± 0.008 | 0.374 ± 0.022 | 0.495 ± 0.03 | 0.469 ± 0.025 |
| LVVWASLVRVEG | 0.271 ± 0.033 | 0.3235 ± 0.003 | 0.252 ± 0.037 | 0.4191 ± 0.0033 | 0.2034 ± 0.00022 | 0.255 ± 0.02 | 0.389 ± 0.0079 | 0.33 ± 0.032 |
| LVWDLFRCFSML | 0.582 ± 0.018 | 0.7165 ± 0.001 | 0.647 ± 0.032 | 0.759 ± 0.038 | 0.23 ± 0.0054 | 0.228 ± 0.021 | 0.351 ± 0.029 | 0.242 ± 0.026 |
| LVWSGLIVVVGG | 0.179 ± 0.024 | 0.204 ± 0.064 | 0.2 ± 0.03 | 0.318 ± 0.013 | 0.176 ± 0.033 | 0.195 ± 0.033 | 0.269 ± 0.012 | 0.3 ± 0.042 |
| LWAVGVATDWGG | 0.706 ± 0.018 | 0.7571 ± 0.0035 | 0.684 ± 0.029 | 0.768 ± 0.015 | 0.694 ± 0.021 | 0.689 ± 0.011 | 0.7513 ± 0.0075 | 0.734 ± 0.022 |
| LWERRSRQLTMF | 0.645 ± 0.056 | 0.7649 ± 0.003 | 0.687 ± 0.014 | 0.7401 ± 0.0057 | 0.173 ± 0.011 | 0.166 ± 0.018 | 0.33 ± 0.026 | 0.263 ± 0.013 |
| LWGLVGVCLVLC | 0.0679 ± 0.011 | 0.0705 ± 0.004 | 0.176 ± 0.021 | 0.229 ± 0.0061 | 0.135 ± 0.0079 | 0.113 ± 0.016 | 0.134 ± 0.011 | 0.169 ± 0.0084 |
| LWVMVLFFPGCS | 0.3714 ± 0.0026 | 0.493 ± 0.0033 | 0.307 ± 0.042 | 0.552 ± 0.024 | 0.299 ± 0.0056 | 0.326 ± 0.025 | 0.5361 ± 0.0032 | 0.463 ± 0.043 |
| LWVSHFVILIVS | 0.122 ± 0.032 | 0.105 ± 0.0073 | 0.135 ± 0.03 | 0.236 ± 0.0048 | 0.0934 ± 0.036 | 0.108 ± 0.026 | 0.16 ± 0.0095 | 0.213 ± 0.03 |
| LYRSLLLSFCVL | 0.593 ± 0.023 | 0.6381 ± 0.00019 | 0.528 ± 0.011 | 0.639 ± 0.018 | 0.407 ± 0.031 | 0.411 ± 0.022 | 0.521 ± 0.012 | 0.483 ± 0.0052 |
| LYSLRRNWLRTP | 0.637 ± 0.032 | 0.726 ± 0.016 | 0.672 ± 0.016 | 0.772 ± 0.0095 | 0.1676 ± 0.0011 | 0.21 ± 0.026 | 0.478 ± 0.019 | 0.323 ± 0.04 |
| MALAVRVVPCGA | 0.373 ± 0.012 | 0.385 ± 0.011 | 0.291 ± 0.028 | 0.4637 ± 0.0008 | 0.264 ± 0.011 | 0.287 ± 0.037 | 0.421 ± 0.0078 | 0.397 ± 0.017 |

| Sequence | protein stability index (Saccharomyces cerevisiae [1]; [3]) | protein stability index (Saccharomyces cerevisiae [1]; [4]) | protein stability index (Saccharomyces cerevisiae [1]; [5]) | protein stability index (Saccharomyces cerevisiae [1]; [6]) | protein stability index (Saccharomyces cerevisiae [1]; [7]) | protein stability index (Saccharomyces cerevisiae [1]; [8]) | protein stability index (Saccharomyces cerevisiae [1]; [9]) | protein stability index (Saccharomyces cerevisiae [2]) |
| --- | --- | --- | --- | --- | --- | --- | --- | --- |
| MALAVRVVSCGA | 0.294 ± 0.015 | 0.3333 ± 0.0024 | 0.265 ± 0.032 | 0.4146 ± 0.0036 | 0.2244 ± 0.00017 | 0.262 ± 0.016 | 0.3802 ± 0.0015 | 0.3657 ± 0.0028 |
| MCVCLLVRVVPS | 0.188 ± 0.0053 | 0.3241 ± 0.00049 | 0.211 ± 0.029 | 0.41 ± 0.01 | 0.175 ± 0.0074 | 0.194 ± 0.022 | 0.357 ± 0.0044 | 0.297 ± 0.044 |
| MGDFGFIFVFFL | 0.544 ± 0.007 | 0.606 ± 0.035 | 0.427 ± 0.027 | 0.6479 ± 0.0044 | 0.383 ± 0.0084 | 0.414 ± 0.008 | 0.59233 ± 0.00044 | 0.502 ± 0.02 |
| MVVSLVLCFWAS | 0.248 ± 0.026 | 0.331 ± 0.069 | 0.257 ± 0.024 | 0.409 ± 0.016 | 0.222 ± 0.0091 | 0.244 ± 0.018 | 0.414 ± 0.055 | 0.255 ± 0.045 |
| MWRWASKCRFSM | 0.668 ± 0.025 | 0.706 ± 0.015 | 0.634 ± 0.015 | 0.759 ± 0.0097 | 0.231 ± 0.012 | 0.245 ± 0.022 | 0.515 ± 0.047 | 0.367 ± 0.011 |
| NFSALECKVQLT | 0.747 ± 0.076 | 0.727 ± 0.018 | 0.625 ± 0.018 | 0.725 ± 0.017 | 0.647 ± 0.042 | 0.653 ± 0.026 | 0.689 ± 0.0082 | 0.75 ± 0.052 |
| NFTDMGRSLYIN | 0.592 ± 0.056 | 0.788 ± 0.018 | 0.663 ± 0.015 | 0.775 ± 0.0087 | 0.166 ± 0.0031 | 0.208 ± 0.054 | 0.434 ± 0.024 | 0.279 ± 0.057 |
| NHKNANAATLIN | 0.645 ± 0.053 | 0.7192 ± 0.0061 | 0.641 ± 0.036 | 0.7266 ± 0.0038 | 0.268 ± 0.016 | 0.352 ± 0.038 | 0.6016 ± 0.0051 | 0.4548 ± 0.0018 |
| NVVIGLHLLVYI | 0.205 ± 0.021 | 0.313 ± 0.041 | 0.212 ± 0.047 | 0.419 ± 0.017 | 0.189 ± 0.022 | 0.227 ± 0.014 | 0.388 ± 0.018 | 0.326 ± 0.049 |
| NYVVFVRGIKIT | 0.585 ± 0.039 | 0.609 ± 0.02 | 0.533 ± 0.026 | 0.633 ± 0.011 | 0.104 ± 0.0022 | 0.114 ± 0.016 | 0.177 ± 0.016 | 0.186 ± 0.1 |
| PCVLAIYVWIRS | 0.0479 ± 0.016 | 0.169 ± 0.019 | 0.154 ± 0.037 | 0.2704 ± 0.0022 | 0.083 ± 0.016 | 0.107 ± 0.016 | 0.173 ± 0.011 | 0.163 ± 0.054 |
| PDRSTILHISGF | 0.721 ± 0.021 | 0.7606 ± 0.001 | 0.642 ± 0.034 | 0.744 ± 0.022 | 0.644 ± 0.037 | 0.633 ± 0.0087 | 0.728 ± 0.023 | 0.699 ± 0.019 |
| PETSRFALNEWG | 0.709 ± 0.04 | 0.748 ± 0.018 | 0.665 ± 0.0095 | 0.755 ± 0.0086 | 0.674 ± 0.043 | 0.68 ± 0.02 | 0.717 ± 0.011 | 0.727 ± 0.059 |
| PFFFSFILVLFW | 0.172 ± 0.0087 | 0.172 ± 0.036 | 0.219 ± 0.0092 | 0.286 ± 0.034 | 0.2355 ± 0.0021 | 0.186 ± 0.035 | 0.244 ± 0.02 | 0.264 ± 0.028 |
| PFFHVFLLLLLI | 0.153 ± 0.011 | 0.1359 ± 0.00032 | 0.188 ± 0.022 | 0.258 ± 0.0067 | 0.313 ± 0.021 | 0.154 ± 0.017 | 0.213 ± 0.0042 | 0.195 ± 0.0064 |
| PIKIYGYLTTVV | 0.597 ± 0.024 | 0.644 ± 0.023 | 0.517 ± 0.032 | 0.653 ± 0.02 | 0.474 ± 0.032 | 0.475 ± 0.02 | 0.6337 ± 0.0023 | 0.523 ± 0.045 |
| PISLYFVWFFFF | 0.242 ± 0.0081 | 0.363 ± 0.033 | 0.251 ± 0.024 | 0.369 ± 0.04 | 0.15 ± 0.011 | 0.147 ± 0.0072 | 0.269 ± 0.015 | 0.195 ± 0.074 |
| PLFPLLGLLFFF | 0.595 ± 0.029 | 0.6147 ± 0.0041 | 0.513 ± 0.032 | 0.592 ± 0.02 | 0.472 ± 0.032 | 0.496 ± 0.039 | 0.558 ± 0.018 | 0.461 ± 0.046 |
| PPGLLPPCLLVV | 0.358 ± 0.027 | 0.373 ± 0.0093 | 0.307 ± 0.035 | 0.444 ± 0.02 | 0.2485 ± 0.00054 | 0.301 ± 0.028 | 0.395 ± 0.011 | 0.39 ± 0.05 |
